According to publication PMC12003778:

Assays:
[1] = molecular target: human GLT25D1/COLGALT1 (wild type) (human) (UniProt Q8NBJ5); experiment: mass photometry
[2] = molecular target: human GLT25D1/COLGALT1 (wild type) (human) (UniProt Q8NBJ5); experiment: SEC-MALS
[3] = molecular target: human GLT25D1/COLGALT1 (wild type) (human) (UniProt Q8NBJ5); experiment: SEC-SAXS

- stoichiometry N [1]: 2
- stoichiometry N [2]: 2
- stoichiometry N [3]: 2
Substance: human GLT25D1/COLGALT1 (wild type) (from UniProt Q8NBJ5 30-618) (enzyme)
